Literature values in publication PMC7866199.

Key:
[1] = target: GRK6A C-terminal PDZ ligand (Homo sapiens) (UniProt P43250)
[2] = target: NPT2A C-terminal 22 aa (Homo sapiens) (UniProt Q06495)
Chain of UniProt Q06495 (Q06495 618-639): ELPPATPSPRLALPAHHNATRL

Chain of UniProt P43250 (P43250 555-576): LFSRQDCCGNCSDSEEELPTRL

Kd [1]: 4 µM | Kd [2]: 4 µM
Substance: NHERF1 (from UniProt O14745)
